Measurements taken from patent publication US10428140B2, “Anti-EphA4 antibody” (EISAI R&D MANAGEMENT CO., LTD., priority 2015, dated 2019).

T1: human EphA7 (Homo sapiens, UniProt Q15375)
T1 construct: a protein of the extracellular region of each human Eph receptor fused with the SEAP protein and the His tag; made in house; host or cells: Expi293F cells (culture supernatant)
T1 sequence (Q15375 28-555 limits assumed): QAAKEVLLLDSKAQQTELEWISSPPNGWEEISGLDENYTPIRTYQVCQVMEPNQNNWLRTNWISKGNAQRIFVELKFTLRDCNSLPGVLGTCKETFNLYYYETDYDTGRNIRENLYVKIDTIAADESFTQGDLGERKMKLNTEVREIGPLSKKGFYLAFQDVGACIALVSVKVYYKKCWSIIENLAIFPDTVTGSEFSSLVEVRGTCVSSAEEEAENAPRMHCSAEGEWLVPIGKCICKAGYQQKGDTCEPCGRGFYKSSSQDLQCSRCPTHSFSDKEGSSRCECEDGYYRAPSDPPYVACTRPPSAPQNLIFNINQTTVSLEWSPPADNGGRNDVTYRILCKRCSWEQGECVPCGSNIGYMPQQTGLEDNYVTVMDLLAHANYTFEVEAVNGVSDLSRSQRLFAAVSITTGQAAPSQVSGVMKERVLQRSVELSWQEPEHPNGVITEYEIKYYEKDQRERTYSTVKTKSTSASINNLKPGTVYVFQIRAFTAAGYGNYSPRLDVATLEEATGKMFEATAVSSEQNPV

T2: human EphA8 (Homo sapiens, UniProt P29322)
T2 construct: a protein of the extracellular region of each human Eph receptor fused with the SEAP protein and the His tag; made in house; host or cells: Expi293F cells (culture supernatant)
T2 sequence (P29322 28-542 limits assumed): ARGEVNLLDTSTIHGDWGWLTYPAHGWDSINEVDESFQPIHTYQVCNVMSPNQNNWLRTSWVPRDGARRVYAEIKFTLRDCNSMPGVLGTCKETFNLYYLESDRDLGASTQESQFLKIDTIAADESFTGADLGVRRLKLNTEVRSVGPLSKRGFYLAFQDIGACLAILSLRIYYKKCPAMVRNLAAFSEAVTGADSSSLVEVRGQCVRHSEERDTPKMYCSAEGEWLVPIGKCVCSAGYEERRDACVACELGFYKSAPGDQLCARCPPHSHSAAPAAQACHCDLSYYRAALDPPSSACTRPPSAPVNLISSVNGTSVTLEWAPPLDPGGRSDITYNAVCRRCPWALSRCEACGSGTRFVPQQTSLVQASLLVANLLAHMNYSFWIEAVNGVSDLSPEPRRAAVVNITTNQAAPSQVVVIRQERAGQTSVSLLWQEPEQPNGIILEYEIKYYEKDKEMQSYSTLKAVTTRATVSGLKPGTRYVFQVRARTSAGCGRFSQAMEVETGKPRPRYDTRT


Tests used:
[1] = biological target: T3, human EphA4 (binding to human Ephrin A5) (Homo sapiens, UniProt P54764); experiment: Human EphA4-human ligand binding inhibition ELISA of humanized antibodies (biotinylated Ephrin A5-Fc); conditions: biotinylated human Ephrin A5-Fc 0.7 nM
T3 construct: made in house; not restated for the human SEAP-His protein
Outline: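 Wells coated with anti-alkaline phosphatase antibody captured human EphA4 extracellular region-SEAP-His at 10 nM. Biotinylated human Ephrin A5-Fc (0.7 nM) and serially diluted humanized antibody (0-3000 nM) were added together for 1 h at room temperature. Bound ligand was detected with HRP-streptavidin and TMBZ at A450.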

human EphA7 = biological target: T1, human EphA7; experiment: Selectivity ELISA of humanized antibodies for human Eph receptor; type: binding; conditions: coated protein 1 nM
Outline: (§1)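 Human Eph ECD-SEAP-His fusions, harvested after 5 days of Expi293F expression, are captured on anti-His-coated wells (1 nM final). Bound humanized antibody is detected with HRP anti-IgG and TMB at 450 nm.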

human EphA8 = biological target: T2, human EphA8; experiment: as above; type: binding; conditions: coated protein 1 nM
Outline: as §1

T3 sequence (P54764 20-547): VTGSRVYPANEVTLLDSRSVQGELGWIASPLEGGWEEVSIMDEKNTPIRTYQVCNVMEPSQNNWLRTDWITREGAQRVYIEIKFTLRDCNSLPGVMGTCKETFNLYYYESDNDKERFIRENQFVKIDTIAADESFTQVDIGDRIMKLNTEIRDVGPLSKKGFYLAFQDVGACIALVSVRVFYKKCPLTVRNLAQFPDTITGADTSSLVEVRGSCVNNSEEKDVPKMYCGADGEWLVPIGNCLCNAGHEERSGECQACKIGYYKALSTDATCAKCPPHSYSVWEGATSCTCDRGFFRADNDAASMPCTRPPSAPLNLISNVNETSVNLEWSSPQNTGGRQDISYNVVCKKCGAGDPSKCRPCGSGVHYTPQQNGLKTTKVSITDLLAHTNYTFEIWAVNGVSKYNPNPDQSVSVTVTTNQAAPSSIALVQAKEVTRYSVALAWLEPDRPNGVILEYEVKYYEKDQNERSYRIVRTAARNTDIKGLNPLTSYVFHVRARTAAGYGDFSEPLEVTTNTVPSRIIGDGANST

Molecule | IC50 [1] [nM] | hEphA7-SEAP-: absorbance at 450 nm, percentage with respect to hEphA4-SEAP-His as 100% (human EphA7) [%] | hEphA8-SEAP-: absorbance at 450 nm, percentage with respect to hEphA4-SEAP-His as 100% (human EphA8) [%]
78 (antibody, V domains shown, synthetic humanized antibody heavy chain variable region sequence; synthetic humanized antibody light chain variable region sequence) VH: QVQLVQSGSELKKPGASVKVSCKASGYTFTDYSMHWVRQAPGQGLKWMGWINTETGEPTYADDFKGRFVFSLDTSVSTAYLQISSLKAEDTAVYYCARIPLYYYGSRYWYFDVWGQGTTVTVSS VL: DIQMTQSPSSLSASVGDRVTITCRASENIYRNLAWYQQKPGKAPKLLVYAATNLADGVPSRFSGSGSGTDYTLTISSLQPEDFATYYCQHFWGTPWTFGQGTKVEIK | 2.8 | 5.0 | 5.4
136 (antibody, V domains shown, synthetic humanized antibody heavy chain variable region sequence; synthetic humanized antibody light chain variable region sequence) VH: QVQLVQSGSELKKPGASVKVSCKASGYTFTDYSMHWVRQAPGQGLKWMGWINTETGEPTYADDFKGRFVFSLDTSVSTAYLQISSLKAEDTAVYYCARIPLYYYGSRYWYFDVWGQGTTVTVSS VL: EIVMTQSPATLSVSPGERATLSCRASENIYRNLAWYQQKPGQSPRLLIYAATNLADGIPARFSGSGSGTEYTLTISSLQSEDFAVYYCQHFWGTPWTFGQGTKVEIK | 2.5 | 5.4 | 5.4

The remaining molecules from weak to strong by IC50 [1], led by results:

IC50 [1] [nM] | hEphA7-SEAP-: absorbance at 450 nm, percentage with respect to hEphA4-SEAP-His as 100% (human EphA7) [%] | hEphA8-SEAP-: absorbance at 450 nm, percentage with respect to hEphA4-SEAP-His as 100% (human EphA8) [%] | Molecule
3.5 | 4.3 | 4.8 | 77 (antibody, V domains shown, synthetic humanized antibody heavy chain variable region sequence; synthetic humanized antibody light chain variable region sequence) VH: QVQLVQSGSELKKPGASVKVSCKASGYTFTDYSMHWVRQAPGQGLEWMGWINTETGEPTYADDFKGRFVFSLDTSVSTAYLQISSLKAEDTAVYYCARIPLYYYGSRYWYFDVWGQGTTVTVSS VL: DIQMTQSPSSLSASVGDRVTITCRASENIYRNLAWYQQKPGKAPKLLVYAATNLADGVPSRFSGSGSGTDYTLTISSLQPEDFATYYCQHFWGTPWTFGQGTKVEIK
2.5 | 5.6 | 5.5 | 156 (antibody, V domains shown, synthetic humanized antibody heavy chain variable region sequence; synthetic humanized antibody light chain variable region sequence) VH: QIQLVQSGSELKKPGASVKVSCKASGYTFTDYSMHWVRQAPGQGLKWMGWINTETGEPTYAQGFTGRFVFSLDTSVSTAYLQISSLKAEDTAVYYCARIPLYYYGSRYWYFDVWGQGTTVTVSS VL: DIQMTQSPSSLSASVGDRVTITCRASENIYRNLAWYQQKPGKAPQLLLYAATNLADGVPSRFSGSGSGTDYTLTISSLQPEDFATYYCQHFWGTPWTFGQGTKVEIK
